Results on one protein are retold here after ChEMBL document CHEMBL2074064, “Uptake of cyclic dipeptide by PEPT1 in Caco-2 cells: phenolic hydroxyl group of substrate enhances affinity for PEPT1” (J Pharm Pharmacol, 2002).

Assay type in all cases: functional, cell-based
Substrate in data set [1]: O=C1CNC(=O)[C@H](Cc2ccc(O)cc2)N1
Description: (§1) TP_TRANSPORTER: uptake in Caco-2 cells.

Substrate in data set [2]: O=C1CNC(=O)[C@H](Cc2ccccc2)N1
The data set is described as §1.

Substrate in data set [3]: O=C1N[C@@H](Cc2ccc(O)cc2)C(=O)N[C@H]1CO
Described as §1.

Substrate in data set [4]: O=C1N[C@@H](Cc2ccccc2)C(=O)N[C@H]1CO
The description is as §1.

B1: Solute carrier family 15 member 1 (Homo sapiens), P46059 (protein)
chain: MGMSKSHSFFGYPLSIFFIVVNEFCERFSYYGMRAILILYFTNFISWDDNLSTAIYHTFVALCYLTPILGALIADSWLGKFKTIVSLSIVYTIGQAVTSVSSINDLTDHNHDGTPDSLPVHVVLSLIGLALIALGTGGIKPCVSAFGGDQFEEGQEKQRNRFFSIFYLAINAGSLLSTIITPMLRVQQCGIHSKQACYPLAFGVPAALMAVALIVFVLGSGMYKKFKPQGNIMGKVAKCIGFAIKNRFRHRSKAFPKREHWLDWAKEKYDERLISQIKMVTRVMFLYIPLPMFWALFDQQGSRWTLQATTMSGKIGALEIQPDQMQTVNAILIVIMVPIFDAVLYPLIAKCGFNFTSLKKMAVGMVLASMAFVVAAIVQVEIDKTLPVFPKGNEVQIKVLNIGNNTMNISLPGEMVTLGPMSQTNAFMTFDVNKLTRINISSPGSPVTAVTDDFKQGQRHTLLVWAPNHYQVVKDGLNQKPEKGENGIRFVNTFNELITITMSGKVYANISSYNASTYQFFPSGIKGFTISSTEIPPQCQPNFNTFYLEFGSAYTYIVQRKNDSCPEVKVFEDISANTVNMALQIPQYFLLTCGEVVFSVTGLEFSYSQAPSNMKSVLQAGWLLTVAVGNIIVLIVAGAGQFSKQWAEYILFAALLLVVCVIFAIMARFYTYINPAEIEAQFDEDEKKNRLEKSNPYFMSGANSQKQM
The Km is the concentration of substrate that gives half-maximal velocity. On to B1, for which the Km in data set [1] was 62.9 µM; in data set [2] it was 90.9 µM; in data set [3], 21.9 µM; in data set [4] it was 118 µM.
